According to patent publication US9926375B2, “Anti-endoglin antibodies and uses thereof” (Tracon Pharmaceuticals, Inc., priority 2014, dated 2018):

T1: human CD105 (Homo sapiens, UniProt P17813)
T1 construct: purchased R&D Systems 1097-EN
T1 sequence (P17813 26-586 limits assumed): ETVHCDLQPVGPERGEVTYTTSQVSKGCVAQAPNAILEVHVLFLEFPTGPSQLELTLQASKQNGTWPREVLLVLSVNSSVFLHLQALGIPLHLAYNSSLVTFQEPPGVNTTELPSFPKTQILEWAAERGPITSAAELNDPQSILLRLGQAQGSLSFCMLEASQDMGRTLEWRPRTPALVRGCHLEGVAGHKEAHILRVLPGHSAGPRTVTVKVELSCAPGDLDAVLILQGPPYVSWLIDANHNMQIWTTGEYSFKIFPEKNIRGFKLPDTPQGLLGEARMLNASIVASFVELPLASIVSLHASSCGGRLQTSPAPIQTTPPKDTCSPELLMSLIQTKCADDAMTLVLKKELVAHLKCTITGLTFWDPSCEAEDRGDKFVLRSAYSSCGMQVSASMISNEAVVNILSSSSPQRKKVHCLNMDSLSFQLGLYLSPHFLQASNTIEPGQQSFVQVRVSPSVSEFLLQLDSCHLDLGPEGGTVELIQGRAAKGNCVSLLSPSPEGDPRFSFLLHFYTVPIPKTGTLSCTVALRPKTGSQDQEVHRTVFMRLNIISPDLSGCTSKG

T2: human endoglin (Homo sapiens, UniProt P17813)
T2 sequence (P17813 26-658): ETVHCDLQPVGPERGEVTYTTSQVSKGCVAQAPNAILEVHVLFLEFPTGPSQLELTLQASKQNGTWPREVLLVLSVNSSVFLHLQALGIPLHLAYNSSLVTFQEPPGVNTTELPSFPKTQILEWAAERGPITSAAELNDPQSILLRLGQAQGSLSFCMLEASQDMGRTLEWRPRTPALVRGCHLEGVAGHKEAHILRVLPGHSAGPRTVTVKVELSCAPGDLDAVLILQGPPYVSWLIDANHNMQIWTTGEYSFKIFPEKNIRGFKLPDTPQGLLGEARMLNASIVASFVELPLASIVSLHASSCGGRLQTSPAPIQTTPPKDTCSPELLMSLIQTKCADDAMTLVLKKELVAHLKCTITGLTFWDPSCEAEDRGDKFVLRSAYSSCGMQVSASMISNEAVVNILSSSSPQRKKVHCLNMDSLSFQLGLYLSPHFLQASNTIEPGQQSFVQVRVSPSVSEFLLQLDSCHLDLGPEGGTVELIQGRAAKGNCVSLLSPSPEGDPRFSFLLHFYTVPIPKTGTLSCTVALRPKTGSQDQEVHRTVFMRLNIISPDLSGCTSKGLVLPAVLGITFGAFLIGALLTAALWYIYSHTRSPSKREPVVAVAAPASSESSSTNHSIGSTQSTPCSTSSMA


Tests used:
human CD105 = molecular target: T1, human CD105; test: Competition ELISA against biotinylated TRC205 antibody for binding to human CD105; details: biotinylated TRC205 55 ng/ml
Method: After washing three times with PBST, a three-fold dilution series of either human BMP9 (R&D Systems Cat. No. 3209-BP-010) (413 nM to 0.56 nM), or unlabelled TRC205 antibody (40 nM to 0.05 nM) or a single concentration of an irrelevant antibody (66 nM) was mixed with a fixed concentration of biotinylated TRC205 antibody (55 ng/ml) and added to the plate. Following incubation for 1 hour at room temperature, the plate was washed three times with PBST and binding of the biotinylated TRC205 antibody was detected using streptavidin-HRP (Sigma Cat. No. 55512) and TMB substrate (Sigma Cat. No. T0440). OD450 nm values were measured on a Dynex MRX TCII plate reader.

human endoglin = molecular target: T2, human endoglin; test: BIAcore (surface plasmon resonance) analysis of anti-endoglin antibody binding; details: antibody captured on protein A chip, 25 degrees Celsius
Method: Affinity of antibodies can be assessed using, for example, BIAcore analysis using standard protocols. Briefly, protein A is chemically coupled to a BIAcore CM5 chip, with the amount of protein A immobilized corresponding to 2000 RU. Subsequent steps are performed in a running buffer of 10 mM HEPES, 150 mM NaCl, 3 mM EDTA, 0.05% TWEEN, pH=7.4, at 25 degrees Celsius using a 10 Hz data collection rate. Anti-endoglin antibody (10 nM) is captured at a 10 μL/min flow rate by the immobilized protein A on the BIAcore chip: typically, capture times of 20, 40 and 80 seconds allow the capture of antibody densities corresponding to 130 RU, 330 RU and 570 RU, respectively. Start-up cycles are performed using running buffer at a flow rate of 40 μL/min, a contact time of 90 seconds and a dissociation time of 90 seconds. Sample cycles are performed using recombinant endoglin at concentrations ranging from 0 to 40 nM. Endoglin is passed over the BIAcore chip containing captured antibody at a flow rate of 40 μL/min with a contact time of 525 seconds and dissociation time of 2500 seconds. Eight sample cycles are typically performed at each antibody capture density. Regeneration of the chip is accomplished using 10 mM glycine pH=1.7. Data analysis is performed using BIAcore T100 Evaluation Software v1.1 Signals generated using BIAcore chips with different captured antibody densities are compared and data generated in the absence of recombinant endoglin are used to adjust for the intraassay blank signal. For fitting of the data, the Rmax is allowed to float to account for variation in capture levels of each antibody in each cycle. Data from each capture density is fitted simultaneously during analysis of each antibody. BIAcore data are presented in Table 2 for chimeric, humanized and deimmunized anti-endoglin antibodies, including ka (1/Ms), kd (1/s), KD (M) and Chi^2 (RU^2).

[1] = test system: peripheral blood mononuclear cells (PBMCs); test: EpiScreen time course T cell proliferation assay with intact anti-endoglin antibodies; assay type: cell-based, human; details: of 20 donors; 50 μg/mL antibody; SI≥2 (borderline ≥1.90), p<0.05
From the text: This example describes a method of screening anti-endoglin antibodies for T-cell epitopes. The interaction between MHC, polypeptide and T cell receptor (TCR) provides the structural basis for the antigen specificity of T cell recognition. T cell proliferation assays test the binding of polypeptides processed from antibodies to MHC and the recognition of MHC/polypeptide complexes by the TCR. In vitro T cell proliferation assays of the present example, involve the stimulation of peripheral blood mononuclear cells (PBMCs), containing antigen presenting cells (APCs) and T cells. Stimulation is conducted in vitro using intact anti-endoglin antibodies. Stimulated T cell proliferation is measured using ^3H-thymidine (^3H-Thy) and the presence of incorporated ^3H-Thymidine is assessed using scintillation counting of washed fixed cells.
Anti-endoglin antibodies were purified from the supernatants of mammalian cultures by protein A chromatography. Buffer exchange and protein concentration was done using PBS pH=7.4. Anti-endoglin antibody was further purified by size exclusion chromatography using a Sephacryl S200 column (GE Healthcare, AMersham, UK). The major peak is collected, filter sterilized and shown to have endotoxin levels <5 EU/mg using an Endosafe-PTS (Charles River, Margate, UK). The purified antibodies are stored at 4 degrees Celsius. Final concentrations were determined by UV absorption using calculated molar extinction coefficients, where A280 1.0=1.62 mg/mL. Each antibody was then diluted to 100 μg/mL in AIMV culture medium.
Peripheral Blood Mononuclear cells (PBMC) are isolated from healthy community donor buffy coats (from blood drawn within 24 hours) which are obtained from the UK National Blood Transfusion Service (Addenbrooke's Hospital, Cambridge, UK) according to approval granted by Addenbrooke's Hospital Local Research Ethics Committee. PBMC are isolated from buffy coats by Lymphoprep (Axis-shield, Dundee, Scotland) density centrifugation and CD8+ T cells are depleted using CD8+ RossetteSep™ (StemCell Technologies, Inc.). Donors are characterized by identifying HLA-DR haplotypes using a Biotest HLA SSP-PCR based tissue-typing kit (Biotest, Landsteinerstralβe, […]). T cell responses to a control antigen, Keyhole Limpet Haemocyanin (KLH) (Pierce, Rockford, Ill., USA) are determined for a positive control. PBMC were then frozen and stored in liquid nitrogen until required. When required for use, cells are thawed rapidly in a water bath at 37° C. before transferring to 10 ml pre-warmed AIM V medium.
A cohort of 20 donors is selected to best represent the number and frequency of HLA-DR allotypes expressed in the world population. […]
PBMCs from each donor are thawed, counted and viability assessed. […]

Row | IC50 of competition with biotinylated TRC205 antibody (human CD105) | ka (human endoglin) | kd (human endoglin) | Molecule | Donors with positive T cell proliferation responses [1]
1 | 0.35 µg/mL |  |  | BMP9: human BMP9 (R&D Systems Cat. No. 3209-BP-010), endoglin ligand [reference compound] | 
2 |  | 46000 M⁻¹ s⁻¹ | 3.25e-05 s⁻¹ | VK1AAVH1A2: humanized/deimmunized anti-endoglin IgG1; light chain SEQ ID NO: 93 (VK1AA), heavy chain SEQ ID NO: 89 (VH1A2) (antibody, V domains shown) VH: EVQLVESGGGLVKPGGSLRLSCAASGFTFSDAWMDWVRQAPGKGLEWVGEARSKASNHATYYAESVKGRFTISRDDSKNTLYLQMNSLKTEDTAVYYCTRWRRFFDSWGQGTLVTVSS VL: DIQMTQSPSSLSASVGDRATITCRASSSVSYMHWYQQKPGKAPKPWAYATSNLASGVPSRFSGSGSGTDYTLTISSLQPEDFATYYCQQWSSNPLTFGGGTKVEIK | none of the donors in the study cohort responded positively
